Results reported in the supplement of paper PMC6757056.
± gives the standard deviation of the averaged measurements.

B1: library; a variant is named by its letters at N, in order (parent)
chain: GCUGUCACCGGUGUAUUACCCUAGUGGUCGACCGGUCUGAUGAGUCUNNNNNNAGACGAAACAGC

How the values were obtained:
hypoxanthine [1] = variants of: B1; assay: normalized RNA/DNA level with ligand (relative to sTRSVctl = 100) (log10 (% of sTRSVctl)); ligand: hypoxanthine (xanthine aptamer); higher = less ribozyme self-cleavage, higher mRNA level; settings: ligand concentration (+) RNA-Seq: 5 mM, HEK293T, reporter: mCherry (pCS4076), ligand present: yes
In short: (§1)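 For each 6-well well, 4 µg of library plasmid encoding mCherry-linked ribozyme switches, or eGFP-linked ones in some ligand experiments, was transfected into HEK293T. Any ligand was added 1 h before transfection, and RNA was extracted with EDTA 72 h after it, then reverse-transcribed, amplified, barcoded and sequenced. RNA level was obtained by dividing RNA reads by DNA reads, normalizing to a spiked-in non-cleaving sequence or to the top sequences, then scaling and log-transforming. The top set was 25 sequences, scaling was ×100 with log10, and ≥100 DNA reads were required.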

hypoxanthine [2] = variants of: B1; assay: normalized RNA/DNA level without ligand (relative to sTRSVctl = 100) (log10 (% of sTRSVctl)); ligand: hypoxanthine (xanthine aptamer); higher = less ribozyme self-cleavage, higher mRNA level; settings: HEK293T, reporter: mCherry (pCS4076), ligand present: no
In short: as §1

Variant | normalized RNA/DNA level with ligand (log10) (hypoxanthine [1]) | normalized RNA/DNA level without ligand (log10) (hypoxanthine [2])
CGCGGC | 1.99 ± 0.042 | 1.92 ± 0.034
UUCGCG | 1.9036 ± 0.0015 | 1.84 ± 0.044
UUUCUA | 1.91 ± 0.02 | 1.87 ± 0.048
AUCACG | 1.933 ± 0.0027 | 1.554 ± 0.015
CUUAUC | 1.98 ± 0.02 | 1.987 ± 0.013
UUGCGC | 1.94 ± 0.027 | 1.91 ± 0.02
GUGAAA | 1.895 ± 0.016 | 1.66 ± 0.027
GGCGUA | 1.908 ± 0.015 | 1.858 ± 0.00033
CCCAUU | 2 ± 0.03 | 1.927 ± 0.0023
GUUUAU | 1.96 ± 0.05 | 1.83 ± 0.042
CAUCUG | 1.97 ± 0.022 | 1.92 ± 0.081
UCGACU | 1.93 ± 0.056 | 1.72 ± 0.035
GACACA | 1.934 ± 0.012 | 1.8467 ± 2.7e-05
UAGCGC | 1.95 ± 0.023 | 1.85 ± 0.057
UUCGGA | 1.95 ± 0.034 | 1.75 ± 0.044
UCACGG | 1.91 ± 0.043 | 1.79 ± 0.051
UUACGC | 1.94 ± 0.029 | 1.81 ± 0.054
GGAACU | 1.93 ± 0.031 | 1.9403 ± 0.00023
UGUUUC | 1.98 ± 0.071 | 2.02 ± 0.047
UUCUCA | 1.98 ± 0.033 | 1.918 ± 0.013
CGCCCG | 1.958 ± 0.0098 | 1.915 ± 0.005
UGCCGU | 1.9 ± 0.027 | 1.74 ± 0.026
CCUUCG | 1.88 ± 0.035 | 1.876 ± 0.0072
UAUGGA | 1.906 ± 0.012 | 1.65 ± 0.02

Variant | normalized RNA/DNA level with ligand (log10) (hypoxanthine [1]) | normalized RNA/DNA level without ligand (log10) (hypoxanthine [2])
AACGAU | 1.9 ± 0.028 | 1.653 ± 0.011
CCGGCA | 1.97 ± 0.03 | 1.895 ± 0.0097
CAACCA | 1.95 ± 0.066 | 1.803 ± 0.0098
UCUCCA | 1.93 ± 0.069 | 1.77 ± 0.019
GUUCUC | 1.981 ± 0.0077 | 1.95 ± 0.02
GUUCUU | 1.95 ± 0.051 | 1.92 ± 0.034
CUGGCU | 1.96 ± 0.077 | 1.915 ± 0.0057
CAUAGG | 1.836 ± 0.015 | 1.43 ± 0.11
CUUAAU | 1.9 ± 0.0027 | 1.76 ± 0.028
UUUCGC | 1.95 ± 0.023 | 1.92 ± 0.047
CCAUCU | 2.036 ± 0.0026 | 1.951 ± 0.015
UGUGCC | 1.984 ± 0.0044 | 1.946 ± 0.019
UAGAUA | 1.917 ± 0.0088 | 1.82 ± 0.071
ACUAUG | 1.89 ± 0.021 | 1.48 ± 0.015
ACUAUU | 1.928 ± 0.012 | 1.82 ± 0.03
CAUUCC | 1.98 ± 0.055 | 1.9 ± 0.048
UCCGUC | 1.97 ± 0.059 | 2.03 ± 0.042
ACUCCA | 2.014 ± 0.018 | 1.91 ± 0.023
CGUACU | 1.954 ± 0.018 | 1.8632 ± 0.0012
GUCGGU | 1.91 ± 0.051 | 1.83 ± 0.035
CUCUAU | 2.03 ± 0.035 | 1.848 ± 0.0086
UAGCAU | 1.91 ± 0.026 | 1.772 ± 0.0045
CCUGGC | 2.01 ± 0.037 | 1.924 ± 0.00087
ACCGUG | 1.8625 ± 0.00016 | 1.45 ± 0.051

Variant | normalized RNA/DNA level with ligand (log10) (hypoxanthine [1]) | normalized RNA/DNA level without ligand (log10) (hypoxanthine [2])
GUACUU | 1.9422 ± 0.0012 | 1.889 ± 0.006
CCGUUA | 1.94 ± 0.021 | 1.75 ± 0.094
ACAGCU | 1.92 ± 0.027 | 1.87 ± 0.033
AUGAGC | 1.8938 ± 0.00087 | 1.57 ± 0.055
AGGCUU | 1.968 ± 0.014 | 1.89 ± 0.043
CAUAUG | 1.94 ± 0.016 | 1.86 ± 0.042
CGCAAC | 1.928 ± 0.01 | 1.88 ± 0.024
CGCAAG | 1.847 ± 0.014 | 1.78 ± 0.1
GUAGGA | 1.892 ± 0.002 | 1.66 ± 0.033
CAUCAA | 1.938 ± 0.011 | 1.81 ± 0.042
AAGGUC | 1.95 ± 0.08 | 1.89 ± 0.016
CCUCUG | 1.96 ± 0.038 | 1.98 ± 0.035
CCAAUA | 1.899 ± 0.0083 | 1.8 ± 0.032
CGUCGU | 2.05 ± 0.051 | 1.98 ± 0.036
UGGUUA | 1.94 ± 0.044 | 1.871 ± 0.0021
CCACGU | 1.93 ± 0.069 | 1.827 ± 0.0023
GAGGCC | 2.03 ± 0.031 | 1.93 ± 0.023
ACUGUU | 1.9396 ± 0.00019 | 1.81 ± 0.05
UUGUUG | 2.027 ± 0.012 | 1.9556 ± 0.0016
UUUACC | 1.957 ± 0.011 | 1.867 ± 0.014
UACACA | 1.899 ± 0.0042 | 1.859 ± 0.012
GCGCUC | 1.919 ± 0.015 | 1.64 ± 0.052
UUGUCA | 1.99 ± 0.037 | 1.946 ± 0.01
GUCUUA | 1.932 ± 0.0061 | 1.87 ± 0.021

Variant | normalized RNA/DNA level with ligand (log10) (hypoxanthine [1]) | normalized RNA/DNA level without ligand (log10) (hypoxanthine [2])
GUCUUU | 1.946 ± 0.003 | 1.885 ± 0.0085
AACAAC | 1.899 ± 0.015 | 1.8557 ± 0.001
GUAUUA | 1.92 ± 0.03 | 1.842 ± 0.017
GGCUUU | 2.025 ± 0.0095 | 1.982 ± 0.006
AUUCGU | 1.93 ± 0.0044 | 1.897 ± 0.018
GGUAGA | 1.894 ± 0.015 | 1.41 ± 0.058
GCCGUC | 1.94 ± 0.096 | 1.91 ± 0.074
GUGGUU | 1.96 ± 0.064 | 1.875 ± 0.017
CACCCC | 1.96 ± 0.025 | 1.8889 ± 0.0018
GUCCGC | 1.9 ± 0.055 | 1.85 ± 0.024
GCAUUC | 2 ± 0.023 | 1.81 ± 0.047
CACAAA | 1.8939 ± 0.00066 | 1.76 ± 0.023
AUCUUA | 1.916 ± 0.012 | 1.827 ± 0.011
GCCCCU | 1.93 ± 0.029 | 1.933 ± 0.0028
UCGGGC | 2.021 ± 0.017 | 1.99 ± 0.0053
CACAGC | 1.9491 ± 1.9e-05 | 1.87 ± 0.044
UAGGUU | 1.961 ± 0.0077 | 1.85 ± 0.015
UGCGCC | 1.989 ± 0.0081 | 1.93 ± 0.065
UACUGA | 1.95 ± 0.019 | 1.74 ± 0.02
CAGUCC | 1.984 ± 0.0083 | 1.88 ± 0.024
UAGGCU | 1.957 ± 0.013 | 1.89 ± 0.027
UAACUU | 1.97 ± 0.0029 | 1.899 ± 0.0086
CGUAGU | 1.99 ± 0.086 | 1.87 ± 0.037
AUACGA | 1.868 ± 0.018 | 1.7 ± 0.025

Variant | normalized RNA/DNA level with ligand (log10) (hypoxanthine [1]) | normalized RNA/DNA level without ligand (log10) (hypoxanthine [2])
UGUGGU | 1.89 ± 0.037 | 1.68 ± 0.017
UAAGCU | 1.946 ± 0.013 | 1.874 ± 0.011
UGUUGG | 1.91 ± 0.058 | 1.53 ± 0.04
AUUUCG | 1.901 ± 0.0068 | 1.568 ± 0.015
UGAAUG | 1.9 ± 0.0011 | 1.75 ± 0.061
CCCAGU | 1.934 ± 0.0021 | 1.89 ± 0.032
CUUUGA | 1.97 ± 0.035 | 1.88 ± 0.0019
UUGGGU | 2.014 ± 0.011 | 1.82 ± 0.053
GAGACC | 1.96 ± 0.048 | 1.82 ± 0.017
UUAUUG | 1.897 ± 0.017 | 1.714 ± 0.0023
AGCCGU | 1.92 ± 0.03 | 1.69 ± 0.024
GGAUCU | 1.95 ± 0.051 | 1.92 ± 0.023
UGAGGC | 1.94 ± 0.03 | 1.9 ± 0.079
UCUUCC | 2.022 ± 0.017 | 1.92 ± 0.024
CAUACU | 1.92 ± 0.04 | 1.83 ± 0.052
UAAUCC | 1.917 ± 0.015 | 1.84 ± 0.041
UUUGUA | 1.93 ± 0.024 | 1.87 ± 0.089
CUGGAC | 1.97 ± 0.03 | 1.87 ± 0.03
GCCUCA | 1.98 ± 0.07 | 1.9 ± 0.024
AUAGAU | 1.91 ± 0.063 | 1.7097 ± 0.00076
